US20200055939A1 (Genentech, published 2020)
Residue numbers refer to the chain shown, from its start.

B1: 1D5v8 (antibody, IgG1, V domains shown)
VH: EVQLVQSGAEVKKPGASVKVSCKASGYAFTSQNIYWVRQAPGQGLEWIGYIEPYNVVPMYNPKFKGRVTITRDTSTSTAYLELSSLRSEDTAVYYCARSGSSNFDYWGQGTLVTVSS
VL: EIVLTQSPDFQSVTPKEKVTITCSASSSISSHYLHWYQQKPDQSPKLLIKRTSNLASGVPSRFSGSGSGTDFTLTINSLEAEDAATYYCQQGSSLPLTFGQGTKVEIK
notes: humanized variant of 1D5
B2: 1D5v11 (antibody, IgG1, V domains shown)
VH: B1 VH with V2I, V68A, I70L, R72V, T74K
VL: DIQLTQSPSSLSASVGDRVTITCSASSSISSHYLHWYQQKPGKSPKLLIYRTSNLASGVPSRFSGSGSGTDYTLTISSLQPEDFATYYCQQGSSLPLTFGQGTKVEIK
notes: humanized variant of 1D5
B3: 1D5v9 (antibody, IgG1, V domains shown)
VH: B1 VH with V2I, V68A, I70L, R72V, T74K, L81M, S84R, E89D
VL: B2 VL
notes: humanized variant of 1D5
B4: 1D5v10 (antibody, IgG1, V domains shown)
VH: B1 VH with I48M, I70M, R72T, L81M, S84R, E89D
VL: B2 VL
notes: humanized variant of 1D5
B5: 1D5v12 (antibody, IgG1, V domains shown)
VH: B1 VH
VL: B2 VL
notes: humanized variant of 1D5
B6: 1D5v13 (antibody, IgG1, V domains shown)
VH: B1 VH with V2I, V68A, I70L, R72V, T74K, L81M, S84R, E89D
VL: B2 VL with L4M, S44A, Y72F
notes: humanized variant of 1D5
B7: 1D5v15 (antibody, IgG1, V domains shown)
VH: B1 VH with V2I, V68A, I70L, R72V, T74K
VL: B2 VL with L4M, S44A, Y72F
notes: humanized variant of 1D5
B8: 1D5v16 (antibody, IgG1, V domains shown)
VH: B1 VH
VL: B2 VL with L4M, S44A, Y72F
notes: humanized variant of 1D5
B9: 1D5v17 (antibody, IgG1, V domains shown)
VH: B1 VH with V2I, V68A, I70L, R72V, T74K
VL: B2 VL with L4M
notes: humanized variant of 1D5
B10: 1D5v18 (antibody, IgG1, V domains shown)
VH: B1 VH with V2I, V68A, I70L, R72V, T74K
VL: B2 VL with Y72F
notes: humanized variant of 1D5
B11: 1D5v19 (antibody, IgG1, V domains shown)
VH: B1 VH with V68A, I70L, R72V, T74K
VL: B2 VL
notes: humanized variant of 1D5
B12: 1D5v20 (antibody, IgG1, V domains shown)
VH: B1 VH with V2I, I70L, R72V, T74K
VL: B2 VL
notes: humanized variant of 1D5
B13: 1D5v21 (antibody, IgG1, V domains shown)
VH: B1 VH with V2I, V68A, R72V, T74K
VL: B2 VL
notes: humanized variant of 1D5
B14: 1D5v22 (antibody, IgG1, V domains shown)
VH: B1 VH with V2I, V68A, I70L, T74K
VL: B2 VL
notes: humanized variant of 1D5
B15: 1D5v23 (antibody, IgG1, V domains shown)
VH: B1 VH with V2I, V68A, I70L, R72V
VL: B2 VL
notes: humanized variant of 1D5
B16: 1D5v24 (antibody, IgG1, V domains shown)
VH: B1 VH with R72V, T74K
VL: B2 VL
notes: humanized variant of 1D5
B17: 1D5v25 (antibody, IgG1, V domains shown)
VH: B1 VH with R72V
VL: B2 VL
notes: humanized variant of 1D5
B18: 1D5v26 (antibody, IgG1, V domains shown)
VH: B1 VH with T74K
VL: B2 VL
notes: humanized variant of 1D5
B19: 1D5v27 (antibody, IgG1, V domains shown)
VH: B1 VH with V2I, M59A, V68A, I70L, R72V, T74K
VL: B2 VL
notes: humanized variant of 1D5
B20: 1D5v28 (antibody, IgG1, V domains shown)
VH: B1 VH with V2I, M59L, V68A, I70L, R72V, T74K
VL: B2 VL
notes: humanized variant of 1D5
B21: 1D5v29 (antibody, IgG1, V domains shown)
VH: B1 VH with V2I, M59V, V68A, I70L, R72V, T74K
VL: B2 VL
notes: humanized variant of 1D5

Experiments:
[1] = target: T1, MICA*008 on MEL-JUSO cells (human, UniProt Q29983 24-317); test: cell-based or functional assay
T1 chain: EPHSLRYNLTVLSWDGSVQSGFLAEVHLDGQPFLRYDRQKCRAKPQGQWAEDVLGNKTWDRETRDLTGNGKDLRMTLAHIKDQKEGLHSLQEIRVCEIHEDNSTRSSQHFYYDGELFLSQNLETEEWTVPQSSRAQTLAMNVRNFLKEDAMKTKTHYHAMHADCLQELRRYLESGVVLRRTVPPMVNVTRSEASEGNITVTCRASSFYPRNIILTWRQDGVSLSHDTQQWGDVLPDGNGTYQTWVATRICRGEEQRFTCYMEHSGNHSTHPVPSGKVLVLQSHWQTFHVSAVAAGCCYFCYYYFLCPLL

[2] = target: MICA*004 on HCC1534 cells (human, UniProt Q29983 24-383); test: cell-based or functional assay
[3] = target: MICB*005 on HCC1534 cells (human); test: cell-based or functional assay
huMICA*004 alpha 3-his = target: T2, huMICA*004 alpha 3-his (human); test: SPR, Biacore 8K, antibody on Protein A chip
T2 construct: whole construct entry: GS, alpha 3 domain, GNS, His8; also called MICA004.His; MICA*004 alpha3 construct
T2 chain: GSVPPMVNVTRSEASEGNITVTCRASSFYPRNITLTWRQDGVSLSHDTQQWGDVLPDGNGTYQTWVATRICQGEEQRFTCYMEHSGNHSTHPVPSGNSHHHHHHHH
Protocol: (§1) A Protein A sensorchip (GE Healthcare) was used following manufacturer provided protocols to capture humanized anti-MICA/B antibodies. The MICA/B alleles were passed over. Antibody binding was measured to human MICA 002, 004, 008 and MICB 005 alpha 3 domains (His tagged, in-house). Sensograms for binding of MICA/B were recorded using an injection time of 2 minutes with a flow rate of 30 ml/min, at a temperature of 25° C., and with a running buffer of 10 mM HEPES, pH 7.4, 150 mM NaCl, 3mM EDTA, and 0.005% Tween 20. After injection, disassociation of the alpha 3 domain from the antibody was monitored for 10 minutes in running buffer. The surface was regenerated between binding cycles with a 60 ul injection of 10 mM Glycine HCl pH 1.5. […] The data was analyzed using a 1:1 binding model. Sensograms of MICA alleles binding to captured anti-MICA antibody were used to calculate the dissociation constant (Kd).

huMICB*005 alpha 3-his = target: T3, huMICB*005 alpha 3-his (human); test: SPR, Biacore 8K, antibody on Protein A chip
T3 construct: whole construct entry: GS, alpha 3 domain, GNS, His8; also called MICB005.His; MICB*005 alpha3 construct
T3 chain: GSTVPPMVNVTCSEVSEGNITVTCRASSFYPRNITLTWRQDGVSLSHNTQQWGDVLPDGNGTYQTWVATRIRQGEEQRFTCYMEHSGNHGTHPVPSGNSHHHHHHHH
Protocol: as §1

huMICA*008 alpha 3-his = target: T4, huMICA*008 alpha 3-his (human); test: SPR, Biacore 8K, antibody on Protein A chip
T4 construct: whole construct entry: GS, alpha 3 domain (Thr204-Ser297), GNS, His8; also the construct of the FPOP experiment; also called MICA008.His; MICA*008 alpha3 construct
T4 chain: T3 chain with C12R, V15A, T35I, N48D, R72C, Q73R, G90S
Protocol: as §1

huMICA*002 alpha 3-his = target: T5, huMICA*002 alpha 3-his (human); test: SPR, Biacore 8K, antibody on Protein A chip
T5 construct: whole construct entry: GS, alpha 3 domain, GNS, His8; also called MICA002.His; MICA*002 alpha3 construct
T5 chain: T3 chain with C12R, V15A, S28G, R32W, T37S, N48D, R72C, G90S
Protocol: as §1
Wherever % Inhibition is given: test concentration or dose not given here.

Row | Binder | % Inhibition [1] [%] | % Inhibition [2] [%] | % Inhibition [3] [%] | Kd (huMICA*004 alpha 3-his) [nM] | Kd (huMICB*005 alpha 3-his) [nM] | Kd (huMICA*008 alpha 3-his) [nM] | Kd (huMICA*002 alpha 3-his) [nM]
1 | B1 | 52 | 42 | 35 | 9.41 | 18.8 | 9.08 | 11.3
2 | B2 | 56 | 52 | 36 | 0.83 | 1.38 | 0.78 | 1.09
3 | B3 | 49 | 53 | 41 | 0.95 | 1.51 | 0.87 | 1.31
4 | B4 | 58 | 62 | 43 | 1.08 | 1.98 | 1.05 | 1.44
5 | B5 | 44 | 50 | 27 | 3.91 | 9.16 | 3.66 | 4.64
6 | B6 | 51 | 49 | 43 | 0.91 | 1.48 | 0.85 | 1.2
7 | B7 | 48 | 45 | 39 | 0.81 | 1.26 | 0.76 | 1.06
8 | B8 | 51 | 50 | 51 | 3.42 | 8.37 | 3.21 | 4.09
9 | B9 | 68 | 52 | 50 | 0.68 | 1.01 | 0.64 | 0.91
10 | B10 | 64 | 47 | 41 | 0.79 | 1.41 | 0.75 | 1.04
11 | B11 | 57 | 44 | 40 | 0.88 | 1.51 | 0.83 | 1.16
12 | B12 | 56 | 46 | 39 | 0.88 | 1.57 | 0.83 | 1.14
13 | B13 | 62 | 55 | 25 | 1.08 | 1.98 | 0.99 | 1.35
14 | B14 | 57 | 46 | 34 | 5.45 | 13.2 | 4.98 | 6.46
15 | B15 | 63 | 50 | 38 | 0.9 | 1.65 | 0.58 | 1.11
16 | B16 | 65 | 50 | 43 | 0.9 | 1.62 | 1.41 | 1.21
17 | B17 | 62 | 46 | 28 | 0.96 | 1.84 | 0.93 | 1.22
18 | B18 | 50 | 37 | 42 | 3.17 | 7.15 | 3.12 | 3.9
19 | B19 | 69 | 53 | -8 | 1.52 | 3.31 | 1.44 | 1.85
20 | B20 | 0 | 3 | 36 | 0.87 | 1.49 | 0.84 | 1.19
21 | B21 | 57 | 40 | -8 | 1.58 | 3.86 | 1.65 | 2.01
